Test results from EP4650366A1.
pKd: −log10 of the molar value.

Legend:
[1] = target: Human GARP-TGFβ1 complex (human) (UniProt Q14392); assay: SPR (Biacore T200), method of Example 4
[2] = target: Human GARP-TGFβ1 complex (human) (UniProt Q14392); assay: SPR (Biacore T200), antibody on Protein A chip, antigen in flow

Sequence of Human GARP-TGFβ1 complex (human) (Q14392 other isoform, or with tags, fused parts or gaps limits assumed, chain 1 of 2): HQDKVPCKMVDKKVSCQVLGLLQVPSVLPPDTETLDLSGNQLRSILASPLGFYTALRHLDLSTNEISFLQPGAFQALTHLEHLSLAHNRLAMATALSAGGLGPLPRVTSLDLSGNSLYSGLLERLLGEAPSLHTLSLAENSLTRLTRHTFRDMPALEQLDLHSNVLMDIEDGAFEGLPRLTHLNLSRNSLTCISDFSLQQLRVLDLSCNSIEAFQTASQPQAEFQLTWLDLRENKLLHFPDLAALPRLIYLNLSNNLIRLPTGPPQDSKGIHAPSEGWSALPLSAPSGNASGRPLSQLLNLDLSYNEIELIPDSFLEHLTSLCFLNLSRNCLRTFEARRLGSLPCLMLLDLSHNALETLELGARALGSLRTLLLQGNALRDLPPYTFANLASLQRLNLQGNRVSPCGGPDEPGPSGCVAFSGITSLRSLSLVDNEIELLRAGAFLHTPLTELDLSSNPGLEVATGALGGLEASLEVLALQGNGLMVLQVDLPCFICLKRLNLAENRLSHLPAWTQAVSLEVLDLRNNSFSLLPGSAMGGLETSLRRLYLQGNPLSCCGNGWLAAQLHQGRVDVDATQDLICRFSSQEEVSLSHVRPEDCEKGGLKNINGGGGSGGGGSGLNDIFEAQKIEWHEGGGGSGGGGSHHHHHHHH
Sequence of Human GARP-TGFβ1 complex (human) (chain, as listed by the source limits assumed, chain 2 of 2): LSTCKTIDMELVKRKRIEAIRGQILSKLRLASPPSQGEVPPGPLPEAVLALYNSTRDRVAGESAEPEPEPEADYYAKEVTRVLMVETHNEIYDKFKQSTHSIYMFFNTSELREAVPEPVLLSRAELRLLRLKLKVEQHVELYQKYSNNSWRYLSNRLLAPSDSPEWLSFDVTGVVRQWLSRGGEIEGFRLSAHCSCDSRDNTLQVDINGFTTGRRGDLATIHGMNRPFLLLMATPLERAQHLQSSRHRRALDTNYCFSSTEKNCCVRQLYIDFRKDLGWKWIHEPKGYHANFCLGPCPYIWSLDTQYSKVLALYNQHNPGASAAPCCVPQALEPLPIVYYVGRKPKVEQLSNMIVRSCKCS

A pKd [1] of 9.01, a koff [1] of 0.000151 s⁻¹ and a kon [1] of 154000 M⁻¹ s⁻¹ were found for Abbv-151 (antibody) in this work. It also gave a pKd [2] of 8.36, a koff [2] of 0.00283 s⁻¹ and a kon [2] of 645000 M⁻¹ s⁻¹.
